Laboratory results reported in paper PMC6707239 (Scientific Reports, 2019).

Target: the molecule itself
Assay: dynamic light scattering; Malvern Zetasizer Nano ZS, hsp60 (wild type or mutant) without nucleotide (APO); percent volume

Protein | stoichiometry N
human mitochondrial hsp60 D3G mutant (MitCHAP-60) (natural protein, UniProt P10809 27-573, looked up, human mitochondrial hsp60 (HspD1), mature protein without the mitochondrial signal peptide, disease mutation D3G, cloned into pET-22b; numbers count on: the mature protein; Mutation found in patients with MitCHAP-60; also called D3G-hsp60; source: E. coli BL21 (DE3), purified (ammonium sulfate, anion-exchange, size-exclusion chromatography)) AKGVKFGADARALMLQGVDLLADAVAVTMGPKGRTVIIEQSWGSPKVTKDGVTVAKSIDLKDKYKNIGAKLVQDVANNTNEEAGDGTTTATVLARSIAKEGFEKISKGANPVEIRRGVMLAVDAVIAELKKQSKPVTTPEEIAQVATISANGDKEIGNIISDAMKKVGRKGVITVKDGKTLNDELEIIEGMKFDRGYISPYFINTSKGQKCEFQDAYVLLSEKKISSIQSIVPALEIANAHRKPLVIIAEDVDGEALSTLVLNRLKVGLQVVAVKAPGFGDNRKNQLKDMAIATGGAVFGEEGLTLNLEDVQPHDLGKVGEVIVTKDDAMLLKGKGDKAQIEKRIQEIIEQLDVTTSEYEKEKLNERLAKLSDGVAVLKVGGTSDVEVNEKKDRVTDALNATRAAVEEGIVLGGGCALLRCIPALDSLTPANEDQKIGIEIIKRTLKIPAMTIAKNAGVEGSLIVEKIMQSSSEVGYDAMAGDFVNMVEKGIIDPTKVVRTALLDAAGVASLLTTAEVVVTEIPKEEKDPGMGAMGGMGGGMGGGMF | 14
human mitochondrial hsp60 V72I mutant (SPG13) (natural protein, UniProt P10809 27-573, looked up, human mitochondrial hsp60 (HspD1), mature protein without the mitochondrial signal peptide, disease mutation V72I, cloned into pET-22b; numbers count on: the mature protein; Mutation linked to SPG13; source: E. coli BL21 (DE3), purified (ammonium sulfate, anion-exchange, size-exclusion chromatography)) AKDVKFGADARALMLQGVDLLADAVAVTMGPKGRTVIIEQSWGSPKVTKDGVTVAKSIDLKDKYKNIGAKLIQDVANNTNEEAGDGTTTATVLARSIAKEGFEKISKGANPVEIRRGVMLAVDAVIAELKKQSKPVTTPEEIAQVATISANGDKEIGNIISDAMKKVGRKGVITVKDGKTLNDELEIIEGMKFDRGYISPYFINTSKGQKCEFQDAYVLLSEKKISSIQSIVPALEIANAHRKPLVIIAEDVDGEALSTLVLNRLKVGLQVVAVKAPGFGDNRKNQLKDMAIATGGAVFGEEGLTLNLEDVQPHDLGKVGEVIVTKDDAMLLKGKGDKAQIEKRIQEIIEQLDVTTSEYEKEKLNERLAKLSDGVAVLKVGGTSDVEVNEKKDRVTDALNATRAAVEEGIVLGGGCALLRCIPALDSLTPANEDQKIGIEIIKRTLKIPAMTIAKNAGVEGSLIVEKIMQSSSEVGYDAMAGDFVNMVEKGIIDPTKVVRTALLDAAGVASLLTTAEVVVTEIPKEEKDPGMGAMGGMGGGMGGGMF | 14
